According to patent publication US20090035322A1 (Regeneron, published 2009):
Like-named read-outs stand apart in the source and are kept apart here.

How the values were obtained:
[1] = biological target: T1, human CD20 (human, UniProt P11836 1-297); assay: cell-based or functional assay
T1 sequence: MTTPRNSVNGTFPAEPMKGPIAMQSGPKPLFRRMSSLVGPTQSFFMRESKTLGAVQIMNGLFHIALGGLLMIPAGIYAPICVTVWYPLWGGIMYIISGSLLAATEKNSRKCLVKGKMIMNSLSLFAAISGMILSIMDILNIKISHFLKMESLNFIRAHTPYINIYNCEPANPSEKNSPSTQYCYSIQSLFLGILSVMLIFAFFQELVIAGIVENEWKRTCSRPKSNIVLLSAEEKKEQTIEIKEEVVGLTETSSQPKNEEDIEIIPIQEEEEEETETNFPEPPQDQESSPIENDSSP

[2] = biological target: T1, human CD20; assay: cell-based or functional assay; remark: listed apart in the source
[3] = biological target: T1, human CD20; assay: cell-based or functional assay; remark: listed apart in the source
[4] = biological target: T1, human CD20; assay: cell-based or functional assay; remark: listed apart in the source
[5] = biological target: T1, human CD20; assay: flow cytometry, hCD20-transfected MG87 cells
Protocol: Briefly, parental MG87 and human CD20-transfected MG87 cells were incubated for 30 min at 4° C. with each of the 15 human antibodies and the two control antibodies, followed by incubation with PE-conjugated anti-human IgG antibody. Binding was assessed by flow cytometry. Fluorescence intensities were compared with binding to the parental cell line and control isotype-matched sample.

[6] = biological target: T2, mutant human CD20 #7 (Y77F, N163D) (human, UniProt P11836 1-297); assay: FACS, mutant-hCD20 MG87 cells; 100%=best antibody
T2 construct: Stably expressed on MG87 cells
T2 chain: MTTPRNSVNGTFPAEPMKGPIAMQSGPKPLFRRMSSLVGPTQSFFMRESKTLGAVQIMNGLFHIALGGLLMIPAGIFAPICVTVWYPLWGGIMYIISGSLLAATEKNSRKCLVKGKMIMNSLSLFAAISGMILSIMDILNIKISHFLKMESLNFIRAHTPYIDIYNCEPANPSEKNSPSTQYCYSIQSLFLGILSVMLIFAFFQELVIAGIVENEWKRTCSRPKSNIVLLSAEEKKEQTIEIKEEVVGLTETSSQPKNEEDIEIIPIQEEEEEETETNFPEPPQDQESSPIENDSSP
Protocol: (§1) Briefly, approximately 1×10⁶ cells from each stably transfected cell line expressing a mutant human CD20 were collected and incubated with each anti-human antibody, at 10 μg/ml, on ice for 1 hr, followed by incubation with APC-conjugated goat anti-human IgG (Jackson Immunolabs), at 10 μg/ml, on ice for 45 min. For each antibody, binding to each mutant human CD20 was assessed by flow cytometry.

[7] = biological target: T3, mutant human CD20 #10 (A157V) (human, UniProt P11836 1-297); assay: FACS, mutant-hCD20 MG87 cells; 100%=best antibody
T3 construct: Stably expressed on MG87 cells
T3 sequence: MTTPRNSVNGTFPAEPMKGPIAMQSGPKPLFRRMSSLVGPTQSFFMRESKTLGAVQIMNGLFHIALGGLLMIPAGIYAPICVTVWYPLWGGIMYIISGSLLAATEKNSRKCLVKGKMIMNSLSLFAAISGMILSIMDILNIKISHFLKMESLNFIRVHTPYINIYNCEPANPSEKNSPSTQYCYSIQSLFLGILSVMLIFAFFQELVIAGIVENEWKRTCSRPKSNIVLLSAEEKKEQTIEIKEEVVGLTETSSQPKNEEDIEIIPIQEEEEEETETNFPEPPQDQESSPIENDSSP
Protocol: as §1

[8] = biological target: T4, mutant human CD20 #1 (Y77F) (human, UniProt P11836 1-297); assay: FACS, mutant-hCD20 MG87 cells; 100%=best antibody
T4 construct: Human residues replaced by mouse residues; stably expressed on MG87 cells
T4 sequence: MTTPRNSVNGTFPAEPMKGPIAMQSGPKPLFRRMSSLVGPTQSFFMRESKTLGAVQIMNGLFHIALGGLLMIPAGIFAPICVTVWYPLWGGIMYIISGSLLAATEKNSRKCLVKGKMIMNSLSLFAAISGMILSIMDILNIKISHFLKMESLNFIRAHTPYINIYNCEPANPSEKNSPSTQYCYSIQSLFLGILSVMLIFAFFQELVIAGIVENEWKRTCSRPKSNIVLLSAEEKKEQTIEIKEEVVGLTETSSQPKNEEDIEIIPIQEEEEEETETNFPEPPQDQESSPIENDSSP
Protocol: as §1

[9] = biological target: T5, mutant human CD20 #9 (N163D, N166D) (human, UniProt P11836 1-297); assay: FACS, mutant-hCD20 MG87 cells; 100%=best antibody
T5 construct: Stably expressed on MG87 cells
T5 chain: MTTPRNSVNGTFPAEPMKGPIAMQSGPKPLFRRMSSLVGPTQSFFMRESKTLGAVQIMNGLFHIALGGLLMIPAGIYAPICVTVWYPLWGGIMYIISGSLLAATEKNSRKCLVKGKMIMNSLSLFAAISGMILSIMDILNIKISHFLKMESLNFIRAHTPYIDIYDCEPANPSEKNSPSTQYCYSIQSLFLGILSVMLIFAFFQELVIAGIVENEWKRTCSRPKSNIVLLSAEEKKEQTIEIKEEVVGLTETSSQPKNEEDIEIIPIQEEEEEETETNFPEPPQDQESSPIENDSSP
Protocol: as §1

[10] = biological target: T6, mutant human CD20 #3 (A170S, P172S) (human, UniProt P11836 1-297); assay: FACS, mutant-hCD20 MG87 cells; 100%=best antibody
T6 construct: Stably expressed on MG87 cells
T6 chain: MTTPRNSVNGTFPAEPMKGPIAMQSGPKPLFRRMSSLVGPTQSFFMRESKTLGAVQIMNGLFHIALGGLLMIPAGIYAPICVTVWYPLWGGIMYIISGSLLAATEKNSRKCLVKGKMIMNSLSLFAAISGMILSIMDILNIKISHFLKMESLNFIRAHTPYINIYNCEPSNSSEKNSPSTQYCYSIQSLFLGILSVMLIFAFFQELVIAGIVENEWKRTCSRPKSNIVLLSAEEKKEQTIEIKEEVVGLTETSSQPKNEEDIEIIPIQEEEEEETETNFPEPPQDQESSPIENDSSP
Protocol: as §1

[11] = biological target: T7, mutant human CD20 #6 (Y77F, N166D) (human, UniProt P11836 1-297); assay: FACS, mutant-hCD20 MG87 cells; 100%=best antibody
T7 construct: Stably expressed on MG87 cells
T7 chain: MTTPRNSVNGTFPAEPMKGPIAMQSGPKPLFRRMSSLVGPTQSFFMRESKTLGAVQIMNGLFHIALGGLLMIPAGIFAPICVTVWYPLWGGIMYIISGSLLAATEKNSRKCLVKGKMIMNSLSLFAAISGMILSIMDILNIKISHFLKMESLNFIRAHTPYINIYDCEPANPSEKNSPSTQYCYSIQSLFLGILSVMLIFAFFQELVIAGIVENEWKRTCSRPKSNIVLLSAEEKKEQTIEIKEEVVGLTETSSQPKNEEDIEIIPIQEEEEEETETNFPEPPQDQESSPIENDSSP
Protocol: as §1

[12] = biological target: T8, mutant human CD20 #2 (N163D) (human, UniProt P11836 1-297); assay: FACS, mutant-hCD20 MG87 cells; 100%=best antibody
T8 construct: Stably expressed on MG87 cells
T8 sequence: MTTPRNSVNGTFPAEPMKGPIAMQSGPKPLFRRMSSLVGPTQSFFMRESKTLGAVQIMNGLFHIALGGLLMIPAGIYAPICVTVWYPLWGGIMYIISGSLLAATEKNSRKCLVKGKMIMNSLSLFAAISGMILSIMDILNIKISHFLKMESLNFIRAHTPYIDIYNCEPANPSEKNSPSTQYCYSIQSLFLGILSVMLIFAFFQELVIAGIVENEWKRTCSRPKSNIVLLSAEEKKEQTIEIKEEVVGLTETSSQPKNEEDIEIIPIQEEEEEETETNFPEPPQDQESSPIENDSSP
Protocol: as §1

[13] = biological target: T9, mutant human CD20 #8 (Y77F, N163D, N166D) (human, UniProt P11836 1-297); assay: FACS, mutant-hCD20 MG87 cells; 100%=best antibody
T9 construct: Stably expressed on MG87 cells
T9 chain: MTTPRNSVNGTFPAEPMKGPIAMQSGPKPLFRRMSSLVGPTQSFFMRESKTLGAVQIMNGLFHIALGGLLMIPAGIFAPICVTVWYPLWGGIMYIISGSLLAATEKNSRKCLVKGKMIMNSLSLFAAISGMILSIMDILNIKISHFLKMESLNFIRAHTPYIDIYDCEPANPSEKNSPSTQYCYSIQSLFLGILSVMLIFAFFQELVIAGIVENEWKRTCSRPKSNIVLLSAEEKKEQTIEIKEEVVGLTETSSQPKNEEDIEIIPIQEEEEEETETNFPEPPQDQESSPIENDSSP
Protocol: as §1

[14] = biological target: T10, mutant human CD20 #4 (N166D) (human, UniProt P11836 1-297); assay: FACS, mutant-hCD20 MG87 cells; 100%=best antibody
T10 construct: Stably expressed on MG87 cells
T10 sequence: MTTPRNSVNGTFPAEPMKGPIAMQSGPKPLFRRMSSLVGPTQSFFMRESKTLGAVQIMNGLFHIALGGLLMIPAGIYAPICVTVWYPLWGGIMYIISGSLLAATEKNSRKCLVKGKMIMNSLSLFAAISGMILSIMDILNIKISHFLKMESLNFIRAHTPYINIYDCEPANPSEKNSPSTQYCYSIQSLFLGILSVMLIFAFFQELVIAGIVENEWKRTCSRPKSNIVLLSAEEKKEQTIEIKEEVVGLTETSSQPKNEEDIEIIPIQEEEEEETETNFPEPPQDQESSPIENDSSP
Protocol: as §1

B1: rituximab (RITUXAN, IDEC Pharmaceuticals Corp.) (antibody, V domains shown)
VH: QVQLQQPGAELVKPGASVKMSCKASGYTFTSYNMHWVKQTPGRGLEWIGAIYPGNGDTSYNQKFKGKATLTADKSSSTAYMQLSSLTSEDSAVYYCARSTYYGGDWYFNVWGAGTTVTVSA
VL: QIVLSQSPAILSASPGEKVTMTCRASSSVSYIHWFQQKPGSSPKPWIYATSNLASGVPVRFSGSGSGTSYSLTISRVEAEDAATYYCQQWTSNPPTFGGGTKLEIK
% Cytotoxicity (CDC, Daudi), 0 hour [1]: 98.3%
% Cytotoxicity (CDC, Daudi), 1 hour [1]: 81.1%
% Cytotoxicity (CDC, Daudi), 6 hour [1]: 20.5%
% Cytotoxicity (CDC, Daudi), 0 hour [2]: 98.5%
% Cytotoxicity (CDC, Daudi), 1 hour [2]: 86.9%
% Cytotoxicity (CDC, Daudi), 6 hour [2]: 16%
% Cytotoxicity (CDC, Daudi), 0 hour [3]: 91.9%
% Cytotoxicity (CDC, Daudi), 1 hour [3]: 65.3%
% Cytotoxicity (CDC, Daudi), 6 hour [3]: 52.1%
CDC, Daudi EC50 [4]: 840 pM
CDC, RL EC50 [4]: > 50000 pM
Total Mean Fluorescent Intensity [5]: 2960

B2: 2F2 (antibody, V domains shown)
VH: EVQLVESGGGLVQPGRSLRLSCAASGFTFNDYAMHWVRQAPGKGLEWVSTISWNSGSIGYADSVKGRFTISRDNAKKSLYLQMNSLRAEDTALYYCAKDIQYGNYYYGMDVWGQGTTVTVSS
VL: EIVLTQSPATLSLSPGERATLSCRASQSVSSYLAWYQQKPGQAPRLLIYDASNRATGIPARFSGSGSGTDFTLTISSLEPEDFAVYYCQQRSNWPITFGQGTRLEIK
Percent of Binding to Mutant Human CD20 [6]: 1%
Percent of Binding to Mutant Human CD20 [7]: 79%
Percent of Binding to Mutant Human CD20 [8]: 60%
Percent of Binding to Mutant Human CD20 [9]: 4%
Percent of Binding to Mutant Human CD20 [10]: 70%
Percent of Binding to Mutant Human CD20 [11]: 1%
Percent of Binding to Mutant Human CD20 [12]: 30%
Percent of Binding to Mutant Human CD20 [13]: 0%
Percent of Binding to Mutant Human CD20 [14]: 51%
